According to patent US20220372154A1 (APEXIGEN, published 2022):

T1: soluble mouse TNFR2 (mouse, UniProt P25119 23-258, limits assumed)
T1 sequence (looked up): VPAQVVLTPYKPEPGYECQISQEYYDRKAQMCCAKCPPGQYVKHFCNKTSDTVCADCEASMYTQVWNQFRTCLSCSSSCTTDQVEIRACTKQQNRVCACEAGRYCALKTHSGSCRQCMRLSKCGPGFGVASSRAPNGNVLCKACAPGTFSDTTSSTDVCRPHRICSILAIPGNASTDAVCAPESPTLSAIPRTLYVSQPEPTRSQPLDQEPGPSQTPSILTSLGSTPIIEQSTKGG

T2: TNFR-Fc (UniProt P20333 23-257, limits assumed)
T2 construct: Printed only as TNFR-Fc; not shown: Fc part
T2 sequence (looked up): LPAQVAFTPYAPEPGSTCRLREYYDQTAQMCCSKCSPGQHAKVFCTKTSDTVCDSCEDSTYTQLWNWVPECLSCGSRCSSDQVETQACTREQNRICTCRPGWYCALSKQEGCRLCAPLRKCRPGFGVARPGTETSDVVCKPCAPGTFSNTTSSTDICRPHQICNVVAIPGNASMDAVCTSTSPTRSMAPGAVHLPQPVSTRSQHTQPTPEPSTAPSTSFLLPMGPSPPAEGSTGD

T3: cynomolgus TNFR2-His tagged protein (cynomolgus, UniProt A0A2K5VET2 132-366)
T3 construct: also called Cyno TNFR2; cynomolgus TNFR2 protein; not shown: His tag
T3 sequence: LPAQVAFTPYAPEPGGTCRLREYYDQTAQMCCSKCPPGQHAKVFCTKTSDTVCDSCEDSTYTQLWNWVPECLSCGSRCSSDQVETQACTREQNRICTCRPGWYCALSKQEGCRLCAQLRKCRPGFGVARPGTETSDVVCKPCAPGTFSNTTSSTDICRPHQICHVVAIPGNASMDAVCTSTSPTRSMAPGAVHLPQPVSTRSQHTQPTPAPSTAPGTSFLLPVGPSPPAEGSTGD

T4: human TNFR2-His tagged protein (soluble) (human, UniProt P20333 23-257)
T4 construct: also called hTNFR2 (soluble); soluble TNFR2-His; not shown: His tag
T4 sequence (looked up): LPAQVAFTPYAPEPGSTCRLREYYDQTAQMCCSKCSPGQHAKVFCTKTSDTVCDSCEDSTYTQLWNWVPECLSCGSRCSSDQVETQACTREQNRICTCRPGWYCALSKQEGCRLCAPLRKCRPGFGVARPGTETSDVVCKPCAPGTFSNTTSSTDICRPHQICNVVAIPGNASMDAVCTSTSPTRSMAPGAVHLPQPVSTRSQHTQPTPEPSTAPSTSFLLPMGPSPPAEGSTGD

T5: human TNFR2 expressed on cells (human, UniProt P20333 23-461)
T5 construct: whole, on cells; also called hTNFR2 (cell); CHO-TNFR2
T5 sequence (looked up): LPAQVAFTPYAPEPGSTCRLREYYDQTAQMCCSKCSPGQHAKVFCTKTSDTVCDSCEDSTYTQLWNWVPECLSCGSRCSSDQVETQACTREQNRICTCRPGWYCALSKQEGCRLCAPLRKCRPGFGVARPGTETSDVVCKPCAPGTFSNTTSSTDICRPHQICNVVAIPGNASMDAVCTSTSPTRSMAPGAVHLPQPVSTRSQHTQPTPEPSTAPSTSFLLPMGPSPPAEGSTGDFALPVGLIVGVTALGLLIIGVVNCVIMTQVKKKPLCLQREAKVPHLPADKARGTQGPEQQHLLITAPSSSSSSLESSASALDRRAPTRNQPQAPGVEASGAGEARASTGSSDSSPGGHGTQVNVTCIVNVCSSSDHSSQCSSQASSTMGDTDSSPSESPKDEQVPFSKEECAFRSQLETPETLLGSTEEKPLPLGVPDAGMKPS


Assays:
soluble mouse TNFR2 = biological target: T1, soluble mouse TNFR2; assay: binding screen on soluble mouse TNFR2 (mouse cross-reactivity)
TNFR-Fc = biological target: T2, TNFR-Fc; assay: TNF-α blocking ELISA on coated TNFR-Fc
Experimental: (§1) In FIGS. 3A-3B, human (3A) or cynomolgus (3B) TNFR2-His tagged protein was coated on 96-well ELISA plates at 1 μg/mL and incubated overnight at 4° C. Plates were washed and blocked using 1% BSA. Antibodies were added for 1 hour at room temperature (RT), washed, and detected using anti-Human HRP. Assay was developed using TMB substrate for 3-5 minutes. In FIG. 3C, FACS binding was performed on CHO cells that were engineered to express human TNFR2. Briefly, antibodies were incubated with 200,000 cells in MACS buffer for 1 hour followed by wash and detection using anti-human IgG BV421 for 20 minutes. Samples were analyzed using Cytoflex or MACSQuant flow cytometers. In FIG. 3D, ligand blocking ELISA was performed by coating plates with 1 ug/mL TNFR-Fc overnight at 4° C. Plates were washed, blocked and antibodies were incubated for 1 hr at RT. […] Assay was developed using TMB substrate for 5-7 minutes.

[1] = biological target: T3, cynomolgus TNFR2-His tagged protein; assay: ELISA on coated cynomolgus TNFR2-His
Experimental: as §1

[2] = biological target: T4, human TNFR2-His tagged protein (soluble); assay: ELISA on coated human TNFR2-His
Experimental: as §1

[3] = biological target: T5, human TNFR2 expressed on cells; assay: flow cytometry on CHO cells expressing human TNFR2
Experimental: as §1

[4] = biological target: T4, human TNFR2-His tagged protein (soluble); assay: ELISA, soluble human TNFR2
[5] = biological target: T3, cynomolgus TNFR2-His tagged protein; assay: ELISA, cynomolgus TNFR2
[6] = biological target: T5, human TNFR2 expressed on cells; assay: cell binding on TNFR2-overexpressing (OE) cells
[7] = biological target: T5, human TNFR2 expressed on cells; assay: flow cytometry, cell-expressed human TNFR2

| Binder | binding result (soluble mouse TNFR2) | IC50 (TNFR-Fc) | EC50 [1] | EC50 [2] | EC50 [3] | EC50 [4] | EC50 [5] | Kd [6] | EC50 [7] |
| --- | --- | --- | --- | --- | --- | --- | --- | --- | --- |
| chimeric antibody clone 108 (taken as rab600_25_108) (antibody, V domains shown) VH: QSVEESGGRLVTPGTPLTLTCKASGFSLSDYFMTWVRQAPGKGLEWIGIINTGGDSYYATWAKGRFTISKTSTTVDLKISSPTTEDTATYFCARDTGYGGYDYAGSFDPWGPGTLVTVSS VL: AIKMTQTPASVSEPVGGTVTIKCQASENINSWLAWYQQKPGQPPKLLIYEASKLASGVPSRFKGSGSGTQFTLTISDLECADAATYYCQQGYIYIDVGNIFGGGTEVVVK | no binding | 4.55 nM | 0.327 nM | 0.256 nM | 0.18 nM |  |  |  |  |
| humanized antibody h600_23_24_H (antibody, V domains shown) VH: EVQLVESGGGLVQPGGSLRLSCAASGFSLNSYGVNWVRQAPGKGLEWVGGINTGGSTYYANWAKGRFTISRDNSKNTLYLQMNSLRAEDTAVYYCARTSGNNVYNYFTLWGQGTLVTVSS VL: DIQMTQSPSSLSASVGDRVTITCQASQSIPSLLAWYQQKPGKAPKLLIYAPSTLASGVPSRFSGSGSGTDFTLTISSLQPEDFATYYCQSYYYGDNTYNNIFGGGTKVEIK |  |  |  |  |  | 0.142 nM | 0.091 nM | 1.5 nM | 1.99 nM |
| chimeric antibody clone 102 (rab600_23_102) (antibody, V domains shown) VH: QSVEESGGRLVTPGTPLTLTCTASGFSLSTYDMIWVRQAPGKGLEWIGYIWSDGITDYASWAKGRFTISKTSTTVDLKVTSPTTEDTATYFCARDVGYAGYGYYFDLWGQGTLVTVSS VL: ALVMTQTPASVEVAVGGTVTIKCQASQSITNYLAWYRQKPGQPPKLLIYGASKLASGVPSRFSGSGSGTEYTLTISGVQCDDAATYYCQQGYTSSNVDNPFGGGTEVVVK | no binding | 100 nM | 0.327 nM | 0.207 nM | 0.0901 nM |  |  |  |  |
| chimeric antibody clone 4 (rab600_23_4) (antibody, V domains shown) VH: QSVEESGGRLVTPGTPLTLTCTVSGIDLSSYTMGWVRQAPGKGLEYIGFISSSGHTYYANWAKGRFTISKTSSTTVDLKMTSLTTEDTATYFCARDGGYGGYDYTGIFNLWGQGTLVTVSS VL: DIVMTQTASPVSAAVGGTVTIKCQATESISSWLAWYQQKPGQPPKLLIYGASTLESGVPSRFSGSGSGTEFTLTISGVQCDDAATYYCQQGYIYTNVDNTFGGGTEVVVK | no binding | 2.74 nM | 0.099 nM | 0.094 nM | 0.147 nM |  |  |  |  |
| chimeric antibody clone 57 (rab600_23_57) (antibody, V domains shown) VH: QSVEESGGRLVTPGTPLTLTCTVSGFSLSSYAMGWVRQAPGKGLEWIGIIGSGGNTYYATWAKGRFTISRTSTTVDLRITSPTTEDTATYFCARDVGYGDYDALDLWGQGTLVTVSS VL: DVVMTQTPSSVSEPVGGTVTIKCQASEEISSNLAWYQQKPGQPPKLLMYAASNLASGVSSRLKGSRSGTDYTLTISGVQCDDAATYFCQCTYIGSGYVVAFGGGTEVVVK | no binding | 0.741 nM | 0.057 nM | 0.067 nM | 0.073 nM |  |  |  |  |
| humanized antibody clone 37 (taken as h600_25_37) (antibody, V domains shown) VH: EVQLVESGGGLVQPGGSLRLSCAASGIDLSNYAMGWVRQAPGKGLEWVGSRRTDGITYYANWAEGRFTISRDNSKNTLYLQMNSLRAEDTAVYYCGRDVGGEGGWYFNLWGQGTLVTVSS VL: DIQMTQSPSTLSASVGDRVTITCQASQSINIYLAWYQQKPGKAPKLLIYDASKLASGVPSRFSGSGSGTEFTLTISSLQPDDFATYYCQQGINNIGFGGGTKVEIK |  |  |  |  |  | 0.072 nM | 0.056 nM |  | 109 nM |
| humanized antibody clone 25-10 (h600_24_10) (antibody, V domains shown, its CDRs are those of rab600_25_10) VH: EVQLLESGGGLVQPGGSLRLSCAASGIDLSRYAMAWVRQAPGKGLEWVGYIDTGDSTYYATWAKGRFTISRDNSKNTLYLQMNSLRAEDTAVYYCTNVGVRMYLWGQGTLVTVSS VL: DIQMTQSPSSLSASVGDRVTITCQASQSISSYLSWYQQKPGKAPKLLIYRASTLESGVPSRFSGSGSGTDFTLTISSLQPEDFATYYCQCGYYGGSYIGAFGGGTKVEIK |  |  |  |  |  | 0.053 nM | 0.113 nM | 1.05 nM | 1.38 nM |
| humanized antibody clone 25-103 (h600_24_103) (antibody, V domains shown, its CDRs are those of rab600_25_103) VH: EVQLVESGGGLVQPGGSLRLSCAASGIDLSSYAMGWVRQAPGKGLEWVGFIDTGGSTYYANWAKGRFTISRDNSKNTLYLQMNSLRAEDTAVYYCANVGARMYLWGQGTLVTVSS VL: DIQMTQSPSSLSASVGDRVTITCQASQSISNLLAWYQQKPGKAPKLLIYRASTLESGVPSRFSGSGSGTDFTLTISSLQPEDFATYYCQCSYYGGSYIGAFGGGTKVEIK |  |  |  |  |  | 0.097 nM | 0.107 nM | 0.468 nM | 0.57 nM |

The remaining lines, values ahead:

| binding result (soluble mouse TNFR2) | IC50 (TNFR-Fc) | EC50 [1] | EC50 [2] | EC50 [3] | EC50 [4] | EC50 [5] | Kd [6] | EC50 [7] | Binder |
| --- | --- | --- | --- | --- | --- | --- | --- | --- | --- |
| no binding | 6.62 nM | 60 nM | 0.313 nM | 0.11 nM |  |  |  |  | chimeric antibody clone 127 (rab600_23_127) (antibody, V domains shown) VH: QEQLEESGGDLVKPEGSLTLTCTASGFDFSVNAMCWVRQAPGKGPEWIAYISNADGSTHYASWVNGRFTISRSTSLNTVTLQMTRLTVSDTATYFCARAPYAGYTGYGYLNLWGPGTLVTVSS VL: DVVMTQTPASVSGPVGGTVTIKCQASQNIDSDLAWYQQKPGQRPKLLIYDASKLASGVPSRFSGSGYGTEFTLTISGVQCEDAATYYCQYTYYINTYGGAFGGGTEVVVK |
| no binding | 6.09 nM | 0.0396 nM | 0.14 nM | 0.17 nM |  |  |  |  | chimeric antibody clone 11D7.1 (rab600_23_11D7.1) (antibody, V domains shown, also called rab600_23_HD7.1) VH: QEQLEESGGGLVQPGGSLKLSCKASGFDFSRYYMSWVRQAPGKGLEWIGYIDPIFGNTYYASWVNGRFTISSHNAQNTLYLQLNNLTAADTATYFCARDGDAGYDGYGYGTDLWGPGTLVTVSS VL: QVLTQTPSSVSEPVGGTVTINCQASENIYSGLAWYQQKPGQPPKLLIVSAFTLASGVPSRFKGSGTGTEFTLTISGVQCDDAATYYCQTYYYGSVTYFNAFGGGTEVVVK |
| no binding | 2.22 nM | 0.315 nM | 0.325 nM | 0.485 nM |  |  |  |  | chimeric antibody clone 107 (rab600_23_107) (antibody, V domains shown) VH: QSVEESGGRLVTPGTPLTLTCTVSGFSLSSNAISWVRQAPGKGLEWIGIINTYDNTAYATWAKGRFSISRTSTTVDLKITSPATKDTATYFCARDVHNNVVPYYFDMWGQGTLVTVSS VL: AYDMTQTPATVEVAVGGTVTINCQASQSISNLLAWYQQKPGQRPKLLIYDTSDLASGVPSRFSGSGSGTEYTLTITGVECADAATYYCQQGYSSSNIDNVFGGGTEVVVK |
| no binding | 3.06 nM | 0.191 nM | 0.131 nM | 0.086 nM |  |  |  |  | chimeric antibody clone 92 (rab600_25_92) (antibody, V domains shown) VH: QSVEESGGRLVKPDETLTLICTVSGFSLSSHHMIWVRQAPGEGLEGIGIIDAGSGSTYYASWAKGRFTISRTSTTVDLKIASPTTEDTATYFCARGGLTESLGTYFDLWGPGTLVTVSS VL: DIVMTQTPASVEAAVGGTVTIKCQASESIDSGLAWYQQKPGQRPKLLIYDSSTLASGVPSRFKGSGSGTDFTLTISDLECADAATYYCQSNYDTGSSVYDWGSFGGGTEVVVK |
